Data on one molecule can be found in patent US8283439B2, “Recombinant fragments and synthetic peptides of 17-kDa polypeptide useful in detecting Bartonella henselae” (Medical Diagnostic Laboratories L.L.C., priority 2008, dated 2012).

For experiment [1], the system named is antibodies against Bartonella henselae in IFA sero-positive patient sera (IgG). Description: IgG ELISA with recombinant 17-kDa protein or Fragment 3 as coating antigen. In kind it is binding, human. On the procedure:
In the ELISA assay, purified Fragment 3 protein was diluted in coating buffer to a final concentration of 250 ng/ml. Antigen was adhered to 96-well plate by applying 100 μl this solution per well and incubated at 4° C. for 18 hours. Uncoated antigen was removed by washing the plate three times with PBST wash buffer. After washing, post-coating was done with 300 μl blocking reagent General Blocker BB1 in each well for 1 hour at 22° C. Primary polyclonal antibody from 100 μl serum in 1:100 sample dilution buffer each well was allowed to react with coated antigen for 1 hour at 22° C. After five wash steps with PBST wash buffer, each well was incubated with […] peroxidase conjugated goat anti-human IgG (KPL, 1:20,000 from 1 mg/ml stock in sample dilute buffer) for 30 minutes at 22° C. The excess amount of secondary antibody was also removed by five wash steps with PBST wash buffer. The reaction were visualized by adding 100 μl substrate 3,3′5,5′-Tetramethylbenzidine solution and incubated at 22° C. for 15 minutes. The reaction was terminated by adding 100 μl 0.5 M H2SO4 per well before taking OD450nm measurement. Receiver operating characteristic curve (ROC) analysis was calculated with associated 95% confidence interval using a binomial distribution with the MedCalc program.
In this series of studies, a panel containing 12 IFA positive serum samples and 6 IFA negative serum samples was evaluated by ELISA using the respective antigen as the coating antigen. FIG. 15 presents the results of this ELISA analysis. […] Neither antigen bound antibody in sample #3508.
To further characterize the comparative abilities of recombinant Fragment 3 and the full length protein to bind antibodies to Bartonella henselae, a broader panel of 47 serum samples (27 IFA positive serum samples and 20 IFA negative serum samples) was analyzed by ELISA. The raw data was analyzed with ROC curve comparison in statistic software MedCalc.
A panel of 47 human sera was used in an IgG ELISA to evaluate the sensitivity and specificity for Fragment 3 mutants. The raw data was analyzed by interactive dot diagram assay (FIGS. 31 and 32).
Purified protein was diluted in coating buffer to a final concentration 250 ng/ml. Antigen was adhered to 96-well plate by applying 100 μl above prepared solution per well and incubate at 4° C. for 18 hours. We removed uncoated antigen by washing plate three times with PBST wash buffer. After washing, post-coating was done with 300 μl blocking reagent General Blocker BB1 each well for 1 hour at 22° C. Then primary polyclonal antibody from 100 μl serum in 1:100 sample dilution buffer each well was allowed to react with coated antigen for 1 hour at 22° C. After five times washing with PBST wash buffer, we incubated each well with 100 μl peroxidase conjugated goat anti-human IgG (KPL, 1:20,000 from 1 mg/ml stock in sample dilute buffer) for 30 minutes at 22° C. The excess amount of secondary antibody was also removed by five times washing with PBST wash buffer. The reaction were visualized by adding 100 μl substrate 3,3′5,5′-Tetramethylbenzidine Solution and incubated at 22° C. for 15 minutes. In the end, we terminated reaction with 100 μl 0.5 M H2SO4 per well before taking OD450nm measurement. Receiver operating characteristic curve (ROC) analysis was calculated with associated 95% confidence interval using a binomial distribution with MedCalc program.

The subject of experiment [2] is IgM in IFA-positive patient sera. Description: IgM Capture ELISA with biotinylated recombinant 17-kDa full-length protein. In kind it is binding, human. Also noted: AUC (ROC analysis of the calibrated slopes): unit not given beside the values. Conditions: IFA-positive (n=13) and IFA-negative (n=34) patient samples. Here is the method: For the IgM Capture assay, purified recombinant 17-kDa full-length protein (1 mg/ml) was biotinylated using the Sulfo-NHS Biotin kit (Pierce, Rockford Ill.). MaxiSorp 96 well plates (Nunc, Rochester N.Y.) were coated with anti-human IgM (KPL, Gaithersburg, Md.) at a concentration of 1 μg/ml in coating buffer (0.015 M Na2CO3, 0.035 M NaHCO3 [pH 9.6]) and incubated overnight at 4° C. The plates were washed with PBS-Tween 20 and blocked with 1% bovine serum albumin (BSA) at room temperature. IgM positive and negative patient sera were used. The sera were diluted 1:100 in 1% BSA with 0.05% Tween 20, prior to being run in duplicate, and reacted with the plates for 1 hr at room temperature.
Biotinylated recombinant 17-kDa protein was added to the plates at 1 μg/ml in dilution buffer and incubated at room temperature for 1 h with shaking. Streptavidin-HRP (Southern Biotech, Birmingham Ala.) was used to detect the plates followed by development with 3,3′,5,5′-Tetramethylbenzidine (TMB) (Moss, Pasadena, Md.) for 30 minutes. The reaction was stopped with 2M HCl and the absorbance at 450 nm was recorded after a period of 5-30 minutes.
Receiver operating characteristic (ROC) curve analysis was used to evaluate the performance of the IgM Capture method. ROC plots can be used to compare all tests, even when tests have quite different cutoff values. The study of area under the curve (AUC), which evaluates the probabilities of (1-Specificity) and Sensitivity, is an important statistical feature of such curves (i.e., for samples with Sensitivity=Specificity=100%, AUC would be 1.0).

B1: 17-kDa Full Length: recombinant full-length 17-kDa (virB5) protein of Bartonella henselae strain Houston-1, aa 1-148; biotinylated in the IgM assay (protein, listed as Bartonella henselae)
chain: MKKYSLVTLLSLFCISHAKAQTATLTDEYYKKALENTQKLDVAKSQTAESIYESATQTANKIKDINNQLANLKADTKTKPEQLQALQIELTLLQAQLQADTLKIQSLAMIQAKDTKTKEELREEQTQKKHEDLQKQLKEKLEKSDVQL
modifications: biotinylated in IgM assay
notes: recombinant full-length 17-kDa (virB5) protein of Bartonella henselae strain Houston-1, aa 1-148; biotinylated in the IgM assay
Regarding B1, the “area under ROC curve (AUC)” value in experiment [1] (IgG ELISA, panel of 47 serum samples (27 IFA positive, 20 IFA negative), MedCalc ROC) is given as 0.853. Moreover, the “reaction with IFA negative serum samples” value in experiment [1] (panel of 12 IFA positive and 6 IFA negative serum samples) is reported as “Neither antigen reacted with any of the IFA negative serum samples”. In experiment [2], the “AUC (ROC analysis of the calibrated slopes)” value was 0.998, the sensitivity stood at 100% and the specificity is 97.1%.
